Data as given in PMC11628620, “A core network in the SARS-CoV-2 nucleocapsid NTD mediates structural integrity and selective RNA-binding”.

Experiments:
[1] = biological target: SARS-CoV-2 nucleocapsid NTD WT (SARS-CoV-2 (Wuhan-Hu-1), UniProt P0DTC9 44-180); assay: MST; details: protein: recombinant; tags: His6-Trx cleaved by TEV; one extra N-terminal G; label: 3'-Cy5; hairpin
[2] = biological target: T1, SARS-CoV-2 nucleocapsid NTD WT (SARS-CoV-2 (Wuhan-Hu-1), UniProt P0DTC9 44-180); assay: MST; details: protein: recombinant; tags: His6-Trx cleaved by TEV; one extra N-terminal G; label: 3'-Cy5; transiently folds as stem-loop
[3] = biological target: T1, SARS-CoV-2 nucleocapsid NTD WT; assay: EMSA; details: protein: recombinant; tags: His6-Trx cleaved by TEV; one extra N-terminal G; hairpin with 22 nt 3' extension

GGGUGUGGCUGUCACUCGGCUGCAUGCUUAGUGCACUCACGCCC (structured_RNA) [SL4 (3'-Cy5)]
Kd [1]: 14.1 ± 2.23 µM

GGAUAAUUAAUAACUAAUUACU (ssRNA) [Ext (3'-Cy5)]
Kd [2]: 0.334 ± 0.047 µM

B1: SL4ext (structured_RNA)
RNA: GGUCUGUGUGGCUGUCACUCGGCUGCAUGCUUAGUGCACUCACGCAGUAUAAUUAAUAACUAAUUACUG
binding result [3]: binds
